# Laboratory results reported in patent US20200048358A1 (ALLIGATOR BIOSCIENCE, published 2020).
# Residue numbers refer to the chain shown, from its start.
# T1: construct 84: Construct containing the full length OX40 sequence (human, UniProt P43489 29-277)
# T1 construct: On transiently transfected FreeStyle 293-F cells; also called human OX40 (full length, on 293-F cells)
# T1 sequence: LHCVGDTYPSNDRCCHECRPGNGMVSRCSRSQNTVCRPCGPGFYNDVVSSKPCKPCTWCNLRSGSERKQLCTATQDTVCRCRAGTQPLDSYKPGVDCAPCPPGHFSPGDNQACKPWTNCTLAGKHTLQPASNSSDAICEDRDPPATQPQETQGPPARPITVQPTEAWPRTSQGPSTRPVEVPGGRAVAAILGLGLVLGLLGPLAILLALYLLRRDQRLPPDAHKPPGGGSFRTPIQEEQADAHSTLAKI
# T2: chimeric OX40 construct 1544: Human OX40 with mouse domains 1A, 1B and 2A (aa 30-81) (human; mouse, UniProt P47741 26-77)
# T2 construct: domain: 1A, 1B and 2A; On transiently transfected FreeStyle 293-F cells
# T2 sequence: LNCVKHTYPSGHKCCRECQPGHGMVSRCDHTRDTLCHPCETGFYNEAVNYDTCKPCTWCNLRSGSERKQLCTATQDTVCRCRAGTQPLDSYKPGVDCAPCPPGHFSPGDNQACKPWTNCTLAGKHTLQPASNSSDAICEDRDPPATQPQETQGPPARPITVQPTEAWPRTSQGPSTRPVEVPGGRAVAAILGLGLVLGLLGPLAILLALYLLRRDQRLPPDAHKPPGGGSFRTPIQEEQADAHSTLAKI
# T3: chimeric OX40 construct 1546: Human OX40 with mouse domains 2A, 2B and module 3 (aa 66-126) (human; mouse, UniProt P47741 62-124)
# T3 construct: domain: 2A, 2B and module 3; On 293-F cells; limits derived as for 1544
# T3 sequence: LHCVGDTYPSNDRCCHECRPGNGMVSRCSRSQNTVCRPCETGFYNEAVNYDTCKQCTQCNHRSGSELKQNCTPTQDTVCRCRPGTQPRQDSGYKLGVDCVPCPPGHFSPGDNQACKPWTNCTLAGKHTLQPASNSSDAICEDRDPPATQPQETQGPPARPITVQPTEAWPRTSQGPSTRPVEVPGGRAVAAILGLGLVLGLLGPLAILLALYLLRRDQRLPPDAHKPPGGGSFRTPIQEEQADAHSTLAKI
# T4: chimeric OX40 construct 1545: Human OX40 with mouse domains 1B, 2A and 2B (aa 43-107) (human; mouse, UniProt P47741 39-103)
# T4 construct: domain: 1B, 2A and 2B; On 293-F cells; limits derived as for 1544
# T4 sequence: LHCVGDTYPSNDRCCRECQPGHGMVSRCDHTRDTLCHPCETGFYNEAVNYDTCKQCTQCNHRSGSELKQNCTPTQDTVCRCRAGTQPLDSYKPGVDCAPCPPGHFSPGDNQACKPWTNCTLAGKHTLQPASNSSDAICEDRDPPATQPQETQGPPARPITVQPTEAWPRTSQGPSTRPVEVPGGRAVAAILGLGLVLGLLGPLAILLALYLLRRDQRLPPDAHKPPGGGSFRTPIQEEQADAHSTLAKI
# T5: chimeric OX40 construct 1548: Human OX40 with mouse module 3 and domains 4A and 4B (aa 108-167) (human; mouse, UniProt P47741 104-165)
# T5 construct: domain: module 3 and domains 4A and 4B; On 293-F cells; limits derived as for 1544
# T5 sequence: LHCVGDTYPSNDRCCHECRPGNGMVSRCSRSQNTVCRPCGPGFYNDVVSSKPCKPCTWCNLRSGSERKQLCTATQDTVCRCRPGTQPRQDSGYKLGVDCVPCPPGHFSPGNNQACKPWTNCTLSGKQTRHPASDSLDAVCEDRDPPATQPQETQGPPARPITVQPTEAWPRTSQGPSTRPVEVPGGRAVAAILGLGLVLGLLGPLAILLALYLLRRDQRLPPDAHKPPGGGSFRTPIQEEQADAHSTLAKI
# T6: chimeric OX40 construct 1547: Human OX40 with mouse domain 2B, module 3 and domain 4A (aa 83-141) (human; mouse, UniProt P47741 79-139)
# T6 construct: domain: 2B, module 3 and domain 4A; On 293-F cells; limits derived as for 1544
# T6 sequence: T3 sequence with E40G, T41P, E46D, A47V, N49S, Y50S, D51K, T52P, D111N
# B1: CD86 mutant 910 (ligand)
# chain: LKIQAYFNETADLPCQFANSQNQSLSELVVFWQDQENLVLNEVYLGKEKFDSVDSKYMGRTSFDSDSWTLRLHNLQIKDKGIYQCIIHHKKPTGMVKIHEMNSELSVLA
# notes: Variant of the soluble extracellular domain of human CD86
# B2: CD86 mutant 901 (ligand)
# chain: B1 chain with Q23L, S24T, D54H, I86V, V96I, A109T
# notes: as for B1
# B3: CD86 mutant 904 (ligand)
# chain: B1 chain with V29I, K49R, S52A, T93S, E100Q, N102D
# notes: as for B1
# B4: CD86 mutant 906 (ligand)
# chain: B1 chain with F7I, Q23L, K49R, I82F, M95L
# notes: as for B1
# B5: CD86 mutant 907 (ligand)
# chain: B1 chain with D54H, I82L, V96I
# notes: as for B1
# B6: CD86 mutant 908 (ligand)
# chain: B1 chain with D54H
# notes: as for B1
# B7: CD86 mutant 915 (ligand)
# chain: B1 chain with V39I, I82F, T93S, M95L, V96I, E100Q, N102D
# notes: as for B1
# B8: CD86 mutant 938 (ligand)
# chain: B1 chain with V39I, D54H, E100Q
# notes: as for B1
# B9: human wild-type CD86 (monomeric soluble extracellular domain), sample 'Wild type' (ligand)
# chain: APLKIQAYFNETADLPCQFANSQNQSLSELVVFWQDQENLVLNEVYLGKEKFDSVHSKYMGRTSFDSDSWTLRLHNLQIKDKGLYQCIIHHKKPTGMIRIHQMNSELSVLA
# notes: also called wild type protein
# B10: anti-OX40 antibody 1524/1525 (antibody, V domains shown)
# VH: EVQLLESGGGLVQPGGSLRLSCAASGFTFGSYYMGWVRQAPGKGLEWVSSIGSYYGYTYYADSVKGRFTISRDNSKNTLYLQMNSLRAEDTAVYYCARHDYGALDYWGQGTLVTVSS
# VL: DIQMTQSPSSLSASVGDRVTITCRASQSISSYLNWYQQKPGKAPKLLIYAASSLQSGVPSRFSGSGSGTDFTLTISSLQPEDFATYYCQQYGPSGLFTFGQGTKLEIK
# notes: Tested as IgG
# B11: anti-OX40 antibody 1164/1135 (antibody, V domains shown)
# VH: EVQLLESGGGLVQPGGSLRLSCAASGFTFYGSSMYWVRQAPGKGLEWVSGIYSSGGYTSYADSVKGRFTISRDNSKNTLYLQMNSLRAEDTAVYYCARGVPHGYFDYWGQGTLVTVSS
# VL: not shown
# notes: Tested as IgG
# B12: anti-OX40 antibody 1490/1135 (antibody, V domains shown)
# VH: EVQLLESGGGLVQPGGSLRLSCAASGFTFSSYAMSWVRQAPGKGLEWVSGISYYGGYTYYADSVKGRFTISRDNSKNTLYLQMNSLRAEDTAVYYCARYYPHHYIDYWGQGTLVTVSS
# VL: not shown
# notes: Tested as IgG
# B13: anti-OX40 antibody 1166/1167 (antibody, V domains shown)
# VH: EVQLLESGGGLVQPGGSLRLSCAASGFTFGGYYMSWVRQAPGKGLEWVSAISGSGGSTYYADSVKGRFTISRDNSKNTLYLQMNSLRAEDTAVYYCARYDYASMDYWGQGTLVTVSS
# VL: B10 VL with G92Y, P93W, S94Y, F97S
# notes: also called monospecific OX40 antibody
# B14: anti-OX40 antibody 1170/1171 (antibody, V domains shown)
# VH: B13 VH with A50Y, S52P, A102Y, S103W
# VL: B10 VL with Y91G, G92H, P93G, G95Y, L96P, F97H
# notes: Tested as IgG
# B15: anti-OX40 antibody 1514/1515 (antibody, V domains shown)
# VH: EVQLLESGGGLVQPGGSLRLSCAASGFTFGYYYMSWVRQAPGKGLEWVSGISSYGSYTYYADSVKGRFTISRDNSKNTLYLQMNSLRAEDTAVYYCARSGYSNWANSFDYWGQGTLVTVSS
# VL: DIQMTQSPSSLSASVGDRVTITCRASQSISSYLNWYQQKPGKAPKLLIYAASSLQSGVPSRFSGSGSGTDFTLTISSLQPEDFATYYCQQGDYTLFTFGQGTKLEIK
# notes: Tested as IgG
# B16: CD86 mutant 900 (ligand)
# chain: B1 chain with I86V, T93S, M95L
# notes: as for B1
# Target: T7, CTLA4-Fc (Fitzgerald, #30R-CD152) (human, UniProt P16410 38-152, biotinylated where used as soluble reagent in the inhibition ELISAs)
# T7 construct: Bought reagent; also called human CTLA-4 (Fitzgerald); biotinylated-CTLA4
# T7 sequence (P16410 38-152 limits assumed): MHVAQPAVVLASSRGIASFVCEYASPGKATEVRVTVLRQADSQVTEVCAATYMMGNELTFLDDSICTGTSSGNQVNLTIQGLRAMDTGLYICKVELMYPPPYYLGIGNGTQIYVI
# Assay: SPR (Biacore); ratio [Kd for CD28]/[Kd for CTLA-4]
# Protocol: Either CTLA4-Fc (Fitzgerald, #30R-CD152) or CD28-Fc (R&D Systems, 342-CD) was immobilized to the Biacore™ sensor chip, CM5, using conventional amine coupling. […] The association was followed for 3 minutes and the dissociation for 10 minutes. Regeneration was performed twice using 5 mM NaOH for 30 seconds. The kinetic parameters and the affinity constants were calculated using BIAevaluation 4.1 software (Table 1.3).
row,Kd binding ratio,Binder
1,5.1,B1
2,2.7,B2
3,6.8,B3
4,0.8,B4
5,5.6,B5
6,4.7,B6
7,1.9,B7
8,5.5,B8
9,1.6,B9

# Target: T1, construct 84: Construct containing the …
# Assay: flow cytometry, transfected 293-F cells
# Protocol: (§1) The mouse/human chimeras were transiently transfected into FreeStyle 293-F cells (Invitrogen), incubated 48 hours in FreeStyle 293 expression medium (Invitrogen) 37 C, 8% CO₂, 135 rpm. The transfected cells were incubated with human OX40 antibodies, human OX40L (hOX40L, RnD Systems), mouse OX40L (mOX40L, RnD Systems) and controls for 30 min 4° C. and then detected with a-huIgG-PE (Jackson lmmunoresearch) 30 min 4° C. Cells were analyzed with FACS Verse (BD Biosciences). Binding to the different chimeric constructs were calculated as relative (mean fluorescence intensity) MFI compared to the binding of the isotype control.
row,relative MFI compared to isotype control,Binder
1,31.4,B10
2,27.5,B11

# Target: T2, chimeric OX40 construct 1544: Human …
# Assay: flow cytometry, transfected 293-F cells
# Protocol: as §1
row,relative MFI compared to isotype control,Binder
1,1.5,B10

# Target: T3, chimeric OX40 construct 1546: Human …
# Assay: flow cytometry, transfected 293-F cells
# Protocol: as §1
row,relative MFI compared to isotype control,Binder
1,0.9,B10
2,0.9,B11

# Target: T4, chimeric OX40 construct 1545: Human …
# Assay: flow cytometry, transfected 293-F cells
# Protocol: as §1
row,relative MFI compared to isotype control,Binder
1,0.9,B10
2,37.3,B11

# Target: T5, chimeric OX40 construct 1548: Human …
# Assay: flow cytometry, transfected 293-F cells
# Protocol: as §1
row,relative MFI compared to isotype control,Binder
1,15.4,B10
2,1,B11
3,1.1,B12
4,15.8,B13
5,20.3,B14
6,17.2,B15

# Target: T6, chimeric OX40 construct 1547: Human …
# Assay: flow cytometry, transfected 293-F cells
# Protocol: as §1
row,relative MFI compared to isotype control,Binder
1,1,B10
2,1,B11

# Target: T7, CTLA4-Fc (Fitzgerald, #30R-CD152)
# Assay: binding ELISA; ratio [EC50 for CD28-Fc]/[EC50 for CTLA4-Fc]
# Protocol: 96-well flat bottom high binding plates (Greiner, #655074) were coated with either CTLA4-Fc (Fitzgerald, #30R-CD152) or CD28-Fc (R&D systems, 342-CD) by incubating overnight at 4° C. […] The plates were washed again and sample or controls (serially diluted 1/5 from 200-0.001 μg/ml) were added to the wells. The samples were incubated for 1 h at room temperature and then washed. Detection antibody, goat-anti-human IgG Fcγ-HRP (Jackson, #109-035-098) was added and the plates were subsequently developed using SuperSignal Pico Chemiluminescent substrate (Thermo Scientific, #37069) and detected with an Envision reader (Perkin Elmer). EC50 values were calculated for both CTLA4 and CD28. The binding ratio (EC50 binding ratio=[EC50 for CD28]÷[EC50 for CTLA-4]) was calculated for each polypeptide and is shown in Table 1.1.
row,EC50 binding ratio,Binder
1,7.7,B1
2,3.5,B16
3,17.2,B2
4,12.2,B3
5,16.2,B4
6,30.5,B5
7,6.2,B6
8,9.9,B7
9,2,B8
10,3.4,B9
